# Data as given in paper doi:10.1101/2022.11.10.515920 (bioRxiv, 2022).
# Target: the molecule itself
# Assay: SEC
row,Protein,stoichiometry N
1,glucose oxidase expressed in BY-2 lysate (enzyme) LPHYIRSNGIEASLLTDPKDVSGRTVDYIIAGGGLTGLTTAARLTENPNISVLVIESGSYESDRGPIIEDLNAYGDIFGSSVDHAYETVELATNNQTALIRSGNGLGGSTLVNGGTWTRPHKAQVDSWETVFGNEGWNWDNVAAYSLQAERARAPNAKQIAAGHYFNASCHGVNGTVHAGPRDTGDDYSPIVKALMSAVEDRGVPTKKDFGCGDPHGVSMFPNTLHEDQVRSDAAREWLLPNYQRPNLQVLTGQYVGKVLLSQNGTTPRAVGVEFGTHKGNTHNVYAKHEVLLAAGSAVSPTILEYSGIGMKSILEPLGIDTVVDLPVGLNLQDQTTATVRSRITSAGAGQGQAAWFATFNETFGDYSEKAHELLNTKLEQWAEEAVARGGFHNTTALLIQYENYRDWIVNHNVAYSELFLDTAGVASFDVWDLLPFTRGYVHILDKDPYLHHFAYDPQYFLNELDLLGQAAATQLARNISNSGAMQTYFAGETIPGDNLAYDADLSAWTEYIPYHFRPNYHGVGTCSMMPKEMGGVVDNAARVYGVQGLRVIDGSIPPTQMSSHVMTVFYAMALKISDAILEDYASMQ,2
2,"glucose oxidase, commercial standard purified from Aspergillus niger (enzyme) LPHYIRSNGIEASLLTDPKDVSGRTVDYIIAGGGLTGLTTAARLTENPNISVLVIESGSYESDRGPIIEDLNAYGDIFGSSVDHAYETVELATNNQTALIRSGNGLGGSTLVNGGTWTRPHKAQVDSWETVFGNEGWNWDNVAAYSLQAERARAPNAKQIAAGHYFNASCHGVNGTVHAGPRDTGDDYSPIVKALMSAVEDRGVPTKKDFGCGDPHGVSMFPNTLHEDQVRSDAAREWLLPNYQRPNLQVLTGQYVGKVLLSQNGTTPRAVGVEFGTHKGNTHNVYAKHEVLLAAGSAVSPTILEYSGIGMKSILEPLGIDTVVDLPVGLNLQDQTTATVRSRITSAGAGQGQAAWFATFNETFGDYSEKAHELLNTKLEQWAEEAVARGGFHNTTALLIQYENYRDWIVNHNVAYSELFLDTAGVASFDVWDLLPFTRGYVHILDKDPYLHHFAYDPQYFLNELDLLGQAAATQLARNISNSGAMQTYFAGETIPGDNLAYDADLSAWTEYIPYHFRPNYHGVGTCSMMPKEMGGVVDNAARVYGVQGLRVIDGSIPPTQMSSHVMTVFYAMALKISDAILEDYASMQ",2
